{
  "source": "paper PMC4832192",
  "biological_target": "response regulator PhoP of Mycobacterium tuberculosis (M. tuberculosis) (UniProt P71814)",
  "assay": "crystal structure",
  "data": [
    {"substance": "response regulator PhoP of Mycobacterium tuberculosis (from UniProt P71814 1-247) (natural protein)", "values": [
      {"measurement": "stoichiometry N", "value": 2}
    ]}
  ]
}
